Results taken from patent US11267868 (dated 2022).
Like-named read-outs stand apart in the source and are kept apart here.

How the values were obtained:
Assay in all cases: SPR
FcgRIIIaV [1] = target: T1, FcgRIIIaV (human, UniProt P08637)
FcgRIIaR [2] = target: T2, FcgRIIaR (human, UniProt P12318)
T2 chain: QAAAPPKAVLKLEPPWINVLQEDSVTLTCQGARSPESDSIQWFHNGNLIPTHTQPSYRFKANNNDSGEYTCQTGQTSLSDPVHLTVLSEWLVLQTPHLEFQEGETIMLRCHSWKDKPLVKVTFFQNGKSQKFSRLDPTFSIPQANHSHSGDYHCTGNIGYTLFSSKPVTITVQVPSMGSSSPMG

FcgRIIaH [3] = target: T3, FcgRIIaH (human, UniProt P12318)
T3 chain: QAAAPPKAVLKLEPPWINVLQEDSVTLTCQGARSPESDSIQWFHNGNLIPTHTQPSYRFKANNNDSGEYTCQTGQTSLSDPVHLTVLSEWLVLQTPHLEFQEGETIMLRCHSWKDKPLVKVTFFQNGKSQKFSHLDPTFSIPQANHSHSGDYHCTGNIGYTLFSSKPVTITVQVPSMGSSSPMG

FcgRIIaH [4] = target: T3, FcgRIIaH
FcgRIIIaV [5] = target: T1, FcgRIIIaV; remark: listed apart in the source
FcgRIIaR [6] = target: T2, FcgRIIaR
FcgRIa [7] = target: T4, FcgRIa (human, UniProt P12314)
T4 chain: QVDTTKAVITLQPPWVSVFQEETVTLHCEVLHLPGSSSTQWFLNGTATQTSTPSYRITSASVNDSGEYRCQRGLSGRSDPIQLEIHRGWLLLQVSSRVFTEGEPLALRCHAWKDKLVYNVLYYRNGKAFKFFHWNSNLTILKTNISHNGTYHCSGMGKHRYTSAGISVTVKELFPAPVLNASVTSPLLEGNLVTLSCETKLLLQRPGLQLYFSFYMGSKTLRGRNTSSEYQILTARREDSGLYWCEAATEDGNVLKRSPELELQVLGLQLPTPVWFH

FcgRIIb [8] = target: T5, FcgRIIb (human, UniProt P31994)
T5 chain: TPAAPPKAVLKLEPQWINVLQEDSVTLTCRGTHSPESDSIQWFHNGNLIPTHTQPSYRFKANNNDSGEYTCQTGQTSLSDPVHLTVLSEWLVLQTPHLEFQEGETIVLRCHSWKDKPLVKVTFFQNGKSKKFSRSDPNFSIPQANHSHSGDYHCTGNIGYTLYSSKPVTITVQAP

FcgRIIb [9] = target: T5, FcgRIIb
FcgRIa [10] = target: T4, FcgRIa

T1 sequence (P08637 17-208 F176V): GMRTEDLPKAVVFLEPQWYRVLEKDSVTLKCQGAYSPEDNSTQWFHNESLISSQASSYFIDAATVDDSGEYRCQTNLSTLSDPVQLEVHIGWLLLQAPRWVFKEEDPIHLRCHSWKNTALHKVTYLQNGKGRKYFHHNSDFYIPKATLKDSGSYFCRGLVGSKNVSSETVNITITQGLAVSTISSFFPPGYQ

B1: IL6R-P587/IL6R-L (antibody)
chain 1: QVQLQESGPGLVKPSETLSLTCAVSGHSISHDHAWSWVRQPPGEGLEWIGFISYSGITNYNPSLQGRVTISRDNSKNTLYLQMNSLRAEDTAVYYCARSLARTTAMDYWGEGTLVTVSSASTKGPSVFPLAPSSKSTSGGTAALGCLVKDYFPEPVTVSWNSGALTSGVHTFPAVLQSSGLYSLSSVVTVPSSSLGTQTYICNVNHKPSNTKVDKKVEPKSCDKTHTCPPCPAPDLLGGDSVFLFPPKPKDTLMISRTPEVTCVVIDVAEEDGEVKFNWYVDGVEVHNAKTKPREEQYNSTYRVVSVLTVLHQDWLNGKEYKCKVSNKALPAPIEKTISKAKGQPREPQVYTLPPSRDELTKNQVSLTCLVKGFYPSDIAVEWESNGQPENNYKTTPPVLDSDGSFFLYSKLTVDKSRWQQGNVFSCSVMHEALHNHYTQKSLSLSP
chain 2: not shown
- Kd (FcgRIIIaV [1]): 28000 nM
- Kd (FcgRIIaR [2]): 710 nM
- Kd (FcgRIIaH [3]): 12000 nM
- Kd (FcgRIIaH [4]): 14000 nM
- Kd (FcgRIIIaV [5]): 32000 nM
- Kd (FcgRIIaR [6]): 1200 nM
- Kd (FcgRIa [7]): 0.71 nM
- Kd (FcgRIIb [8]): 28 nM
- Kd (FcgRIIb [9]): 15 nM
- Kd (FcgRIa [10]): 0.21 nM
